According to the DeepSol protein solubility set:

Test: soluble on expression in E. coli; label from the status in PepcDB or PDB records

Row | Sequence | soluble on expression in E. coli
1 | SLKAKILFVGPCESGKTVLANFLTESSDITEYNPTQGVRILEFENPHVTSNNKGTGCEFELWDCGGDSKFESCWPALMKDAHGVVIVFNADIPSHLKEIEMWYSCFVQQQFLQDSHCMLVAHHKPGSGGERGSLALSPPLNKLKLVHSNLEEDPEEVRVEFIKYLKSIINSMSESRDREEMLIIT | soluble
2 | MSYRQMLIHRCDIYHEAAQAPSAGRFGIPADRLQPVISYPDTPDEQDVPCYFTEKTQQLIQEEPDQTVYHSFLVHFPLSADIRVNDKIIWENHKYILKLPKRIRHHHWEVVAVRDESLLEHHHHHH | soluble
3 | MGSDKIHHHHHHMINFSQIQVFITIVESGGFIAAGEKMHRSQPAITNAIKKLESSLGFELFDRKVYRPQLTAKGKAFYQKAREVVAQFMQLENSAETLRSGVETQFSIDLDIALPLPGYAPLIQSFIRQYPETCFSLSNNTFVRCLERLERRECHLCIAASHIRSPQIEYLRMPSIRMIPVASRDYYDQHKERINNPKLGIYCMQIMIAGTQQELYQLKIEPLSHSMPKWLVGDMYIRKQLILSGMGIGRLPDHLVEKELAEGSLVQLNTRDYVAVTMDIYAMRLNNQEHGMVSNYAWQSLKSYAEDTVSPDLK | not soluble
4 | MIKTRDQSIFDEMFKRIQSLGFKVYDYKPMTEVPYPFVEMESTDAEYIPNKDDIKGSVELMLSVWGVQKKRKQVSDMASAIFSQALTVESSDVFRWSLNTRQSSIQMLDDTTTVTPLKRAIVTLRFNLR | not soluble
5 | MVQTYRSPVRIYKHPFEIVMAAYEMRFPTCPQIPIFVGSEVTYEYKSVDGAEWVIDRKCQLNVEAPYLVKKIAGVDYVYFSQKNSLDRRKRTLDIEATNISFSSRINVKENCTYYVHAENENWTCFEQSASLDVKNFFGLESAVEKLAVRQYGANLAKGKEILEFFIEELLKKTTHIERFRDADQEETTSATDSAIEMKELSDGDAVLVNDRPPMLAAETDEMRTARATASFDDACRVCMIIYCRIFIIISSYFFNFPADSKLEAEYIRRFLGQLSPLEESRLCEIKYSLQAHHKGKLPNDAHLLRFLRARDFDVAKAKDMVHASIIWRKQHNVDKILEEWTRPTVIKQYFPGCWHNSDKAGRPMYILRFGQLDTKGMLRSCGVENLVKLTLSICEDGLQRAAEATRKLGTPISSWSLVVDLDGLSMRHLWRPGVQCLLKIIEIVEANYPETMGQVLVVRAPRVFPVLWTLISPFIDEKTRKKFMVSGGSGGDLKEELRKHIEEKFIPDFLGGSCLTTNCGLGGHVPKSMYLPVEEQEGASSSEDPLHSTYTSTATWRGYPVEVVIPIETAGCVLTWDFDVLKNDCEFSLYFSTEKIEQPAVRDGAQSPTTILNPVEMVSAAIGGASHQHPDLQCAPELKIGTPQLRLEEKAVVFQEGDSMQGSHYCSRAGTYIMQWRVPETAAGHSSTFDFGSHKCRLIYYYEILNSENFRGSVASLESCRSSSFSSIAPPTPPTPGTPRNP | not soluble
6 | KSAKEMLEYCNSTGLSLSGMVMQNELALHSKKEIEEYFGHVWQTMQACIDRGMNTEGVLPGPLRVPRRASALRRMLVSSDKLSSDPMNVIDWVNMFALAVNEENAAGGRVVTAPTNGACGIVPAVLAYYDHFIESVSPDIYTRYFLAAGAIGALYKMNASISGAEVGCQGEVGVACSMAAAGLAELLGASPEQVCVAAEIGMEHNLGLTCDPVAGQVQVPCIERNAIASVKAINAARMAMRRTSAPRVSLDKVIETMYETGKDMNAKYRETSRGGLAIK | not soluble
